From patent US7939292B2, “Modified heparinase III and methods of sequencing therewith” (Massachusetts Institute of Technology, priority 2000, dated 2011)

Columns and labels:
LLC cells = test: Lung metastasis of LLC cells injected through tail vein; assay type: in vivo, mice; conditions: cells incubated with enzyme before tail vein injection
Experimental: (§1) To ensure that these observations were not limited to the tumor model chosen, hep III was used to treat mice bearing Lewis lung carcinoma (LLC) tumors. Growth curves of primary tumor growth for LLC tumor in C57BL/6 mice treated with either PBS or heparinase III were plotted. 4×10^5 log phase LLC cells were injected subcutaneously to the flank of mice on day 1. Daily injection of 0.1 ml of either PBS or 2 mg/ml recombinantly expressed heparinase III started at the day 4 and continued throughout the experiment. At day 8, osmotic pumps (100 μl capacity delivering at 0.5 μl per hour) containing PBS or 3 mg/ml hep III were implanted subcutaneously at a place remote from the tumor site. Mice were sacrificed at day 20. Lung metastasis of LLC cells injected through tail vein were quantitated as number of lung nodules. Log growth LLC cells were trypsinized for 30 seconds and resuspended in PBS to a final concentration of 1×10^6 per ml. For experimental group, cells were incubated with […] hep III for 30 minutes at 37° C. before injecting 0.2 ml of cell suspension via tail vein. Mice were euthanized 12 days after tail vein injections, lungs were harvested, rinsed in tap water and fixed overnight in Bouin's solution. The number of nodules on lung surface was counted with the aid of a dissection microscope.

B16BL6 cells [1] = test: FGF-induced proliferation of B16BL6 cells in vitro; assay type: cell-based
B16BL6 cells [2] = test: Growth in mice of B16BL6 cells after heparinase removal of the HLGAG coat; assay type: in vivo; conditions: HLGAG coat removed
Excerpt: There are two possible mechanisms by which heparinase may be acting on tumor cells. For instance, heparinase III treatment of cells may result in cells losing their unique surface HLGAG coat and this directly or indirectly may impinge on their ability to grow or metastasize. On the other hand heparinase III treatment of cells may also result in the generation of distinct HLGAG fragments, and these fragments could then directly or indirectly modulate tumor cell function. It was thought that heparinase III may function though either one of these mechanisms or through some combination of these mechanisms. To investigate the mechanisms of action further, we treated B16BL6 cells with either heparinases I or III, to remove the HLGAG coat on the tumor cell surface.
In further support of this conclusion ex vivo digestion of the HLGAG coat present on tumor cells with either heparinase, followed by centrifugation and resuspension in PBS to remove the enzyme and HLGAG fragments released from the cell surface, prior to in vivo injection results in the cells being functionally identical to controls. Thus the released tumor cell HLGAG fragments appear to play the key role in modulating tumor growth and metastasis.

Akt = Akt activation in B16BL6 tumor; design: species or system mice; conditions: mouse, in vivo
Experimental: f. Effect of heparinase treatment on Akt activation. The primary tumor was treated and processed as described above. Akt antibody and phospho-Akt antibody from New England Biolabs were used to probe the immunoblot.

Erk-1, 2 [3] = test: Erk-1, 2 activation in FGF2 stimulated B16BL6 cells (immunoblot); assay type: cell-based; conditions: enzyme 200 nM 30 min before 50 ng/ml FGF2
Experimental: a. Methods: B16BL6 cells in 10 cm culture dishes were serum starved for 48 hours before stimulation with 50 ng/ml FGF2. Cells were stimulated for 20 minutes before whole cell lysates were prepared with 1 ml modified RIPA buffer containing various enzyme inhibitors (50 mM Tris-HCl, pH 7.4, 1% NP-40, 0.25% Na-deoxycholate, 150 mM NaCl, 1 mM EDTA, 1 mM PMSF, 1 μg/ml aprotinin, leupeptin, and pepstatin, 1 mM activated Na3VO4, 1 mM NaF). Protein concentration in the lysate was determined using the Bio-Rad protein assay kit (BioRad) and adjusted accordingly for electrophoresis analysis. For the heparinase treated groups, cells were treated with either hep I or hep III (200 nM) for 30 min at 37° C. prior to addition of FGF2. The immunoblot was probed with anti-Erk-1, 2 or anti-phospho-Erk-1, 2 antibody (New England Biolabs; MA) and detected by anti-rabbit IgG conjugated to HRP using SuperSignal West Pico Chemiluminescent substrate (Pierce, Ill.).

[4] = system: Lewis lung carcinoma (LLC) tumors; test: Primary tumor growth of Lewis lung carcinoma (LLC) in mice; assay type: in vivo; conditions: 12 mg/kg per day
Experimental: as §1

B16BL6 melanoma cells = test: Lung metastasis of heparinase treated B16BL6 cells after tail vein injection; assay type: in vivo, mice; conditions: cells treated 30 min at 37° C. before tail vein injection; 13 days
Experimental: We next investigated the ability of heparinase treated B16BL6 melanoma cells to metastasize to the lungs. B16BL6 cells in log growth phase were briefly trypsinized and resuspended in PBS to a final concentration of 1×10^6 per ml. Prior to injection, cells were treated with either PBS, hep I […] or hep III […] for 30 min. at 37° C. 0.2 ml cell suspensions (2×10^5 cells) were injected slowly via tail vein. Mice were sacrificed 13 days later and lungs were harvested, rinsed with tap water. The number of nodules on lung surface were counted with the assistance of a dissection microscope. * indicates p<0.05 (Mann-Whitney test).

FAK = test: Activation of FAK in B16BL6 tumor; design: species or system mice; conditions: mouse, in vivo
Excerpt: d. Effect of heparinase treatment on activation of FAK in B16BL6 tumor. The FAK protein was immunoprecipitated with mouse anti-FAK monoclonal antibody (Transduction Laboratories, Lexington, Ky.) according to the procedures described above. The phosphorylated FAK was detected using phosphotyrosine specific antibody RC20.

Erk-1, 2 [5] = test: Total and phosphorylated Erk-1, 2 in heparinase-treated B16BL6 tumor; design: species or system mice; conditions: mouse, in vivo
Experimental: e. Level of total and phosphorylated Erk-1, 2 in heparinase-treated B16BL6 tumor. Tumor homogenates were prepared and processed as described in c. The supernatant was used for total protein concentration assay and immunoblotting. The immunoblot was detected as described in a.

B1: heparinase III: HLGAG degrading enzyme from Flavobacterium heparinum (EC 4.2.2.8), SEQ ID NO:2; cleaves heparan sulfate (protein, listed as Pedobacter heparinus)
chain: MTTKIFKRIIVFAVIALSSGNILAQSSSITRKDFDHINLEYSGLEKVNKAVAAGNYDDAAKALLAYYREKSKAREPDFSNAEKPADIRQPIDKVTREMADKALVHQFQPHKGYGYFDYGKDINWQMWPVKDNEVRWQLHRVKWWQAMALVYHATGDEKYAREWVYQYSDWARKNPLGLSQDNDKFVWRPLEVSDRVQSLPPTFSLFVNSPAFTPAFLMEFLNSYHQQADYLSTHYAEQGNHRLFEAQRNLFAGVSFPEFKDSPRWRQTGISVLNTEIKKQVYADGMQFELSPIYHVAAIDIFLKAYGSAKRVNLEKEFPQSYVQTVENMIMALISISLPDYNTPMFGDSWITDKNFRMAQFASWARVFPANQAIKYFATDGKQGKAPNFLSKALSNAGFYTFRSGWDKNATVMVLKASPPGEFHAQPDNGTFELFIKGRNFTPDAGVFVYSGDEAIMKLRNWYRQTRIHSTLTLDNQNMVITKARQNKWETGNNLDVLTYTNPSYPNLDHQRSVLFINKKYFLVIDRAIGEATGNLGVHWQLKEDSNPVFDKTKNRVYTTYRDGNNLMIQSLNADRTSLNEEEGKVSYVYNKELKRPAFVFEKPKKNAGTQNFVSIVYPYDGQKAPEISIRENKGNDFEKGKLNLTLTINGKQQLVLVP
**Q.** B1 was tested. Which “colonization of lungs by LLC cells” value (LLC cells) did it give?
**A.** inhibited the LLC cells to colonize in the lungs

**Q.** What about the “FGF-induced proliferation of B16BL6 cells” value (B16BL6 cells [1]) of the same molecule?
**A.** inhibit FGF-induced proliferation

**Q.** What about the “ability of treated B16BL6 cells to grow in mice compared to untreated cells” value (B16BL6 cells [2]) of the same molecule?
**A.** no effect

**Q.** And the “activation of Akt in tumor” value (Akt)?
**A.** no change in activation of Akt

**Q.** What about the “Erk-1, 2 activation upon FGF2 stimulation” value (Erk-1, 2 [3]) of the same molecule?
**A.** decreased Erk-1, 2 activation

**Q.** What about the LLC tumor growth [4] of the same molecule?
**A.** inhibition in tumor growth

**Q.** And the “ability of treated B16BL6 cells to metastasize to the lungs compared to PBS treated cells” value (B16BL6 melanoma cells)?
**A.** significantly less able to metastasize to the lungs

**Q.** What about the “FAK activation in tumor” value (FAK) of the same molecule?
**A.** inhibited FAK activation

**Q.** And the “level of activated Erk-1, 2 in primary tumor” value (Erk-1, 2 [5])?
**A.** lower level of activated Erk-1, 2
